{
  "source": "paper PMC2871789",
  "assay_in_all_cases": "EMSA",
  "key": {"[1]": {"target": "T1, RelE (Mycobacterium tuberculosis H37Rv) (UniProt O50461)", "T1 sequence": "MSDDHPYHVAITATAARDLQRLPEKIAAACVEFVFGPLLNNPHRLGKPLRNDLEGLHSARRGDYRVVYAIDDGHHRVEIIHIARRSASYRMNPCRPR"}, "[2]": {"target": "T2, RelB;RelE (Mycobacterium tuberculosis H37Rv;Mycobacterium tuberculosis H37Rv) (UniProt O50462+O50461)", "T2 sequence 1": "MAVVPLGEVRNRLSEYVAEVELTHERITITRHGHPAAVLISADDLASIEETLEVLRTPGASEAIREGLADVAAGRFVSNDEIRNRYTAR", "T2 sequence 2": "T1 sequence"}, "[3]": {"target": "T3, RelB;RelG (Mycobacterium tuberculosis H37Rv;Mycobacterium tuberculosis H37Rv) (UniProt O50462+O33348)", "T3 sequence 1": "T2 sequence 1", "T3 sequence 2": "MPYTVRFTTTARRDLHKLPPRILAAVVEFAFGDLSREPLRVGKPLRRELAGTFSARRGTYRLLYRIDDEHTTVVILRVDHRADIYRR"}, "[4]": {"target": "RelK (Mycobacterium tuberculosis H37Rv) (UniProt P9WF09)", "sequence (P9WF09 whole entry)": "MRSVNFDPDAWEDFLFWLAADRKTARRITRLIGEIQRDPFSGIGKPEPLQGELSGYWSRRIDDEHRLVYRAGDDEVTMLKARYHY"}, "[5]": {"target": "T4, RelB (Mycobacterium tuberculosis H37Rv) (UniProt O50462)", "T4 sequence": "T2 sequence 1"}, "[6]": {"target": "RelB;RelK (Mycobacterium tuberculosis H37Rv;Mycobacterium tuberculosis H37Rv) (UniProt O50462+P9WF09)", "sequence (P9WF09 whole entry, one chain of several)": "as the sequence (P9WF09 whole entry) above"}, "[7]": {"target": "T5, RelF;RelG (Mycobacterium tuberculosis H37Rv;Mycobacterium tuberculosis H37Rv) (UniProt O33347+O33348)", "T5 sequence 1": "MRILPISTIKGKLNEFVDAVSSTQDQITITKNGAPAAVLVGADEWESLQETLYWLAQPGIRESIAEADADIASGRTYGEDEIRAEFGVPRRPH", "T5 sequence 2": "T3 sequence 2"}, "[8]": {"target": "T6, RelF;RelE (Mycobacterium tuberculosis H37Rv;Mycobacterium tuberculosis H37Rv) (UniProt O33347+O50461)", "T6 sequence 1": "T5 sequence 1", "T6 sequence 2": "T1 sequence"}},
  "data": [
    {"sequence": "ACCGTCTAGATGACAAGTTGGCCGGGATCAAGCGAATCTCGCGCCGGGCGATGTCAGCCCCGTCGTCAGGCTCGTCGAAGGTGCACGCCGTCGAACAGCAGGAGATCCTCGACGAGGCGTTCGGCTGAGTTCGCTCAGCCGAACGCTCGAGGAGACATCAAACAGCGACGAGGCGTTCGGCTCGGTAAGCCGATGCTCGGCGTACAGGGTTTAGCCATACTTTTAGCTACAATCGCGGTTATGGCTGTTGTCCCACTGGGTATA (double strand) [1247p]", "values": [
      {"measurement": "binding", "setting": "[1]", "result": "no binding"},
      {"measurement": "binding", "setting": "[2]", "result": "binds"},
      {"measurement": "binding", "setting": "[3]", "result": "binds"},
      {"measurement": "binding", "setting": "[4]", "result": "no binding"},
      {"measurement": "binding", "setting": "[5]", "result": "no binding"},
      {"measurement": "binding", "setting": "[6]", "result": "binds"}
    ]},
    {"sequence": "ATCTTCTAGAACACACCGAGACCGAACCGTTACGCCGAGACTAGGTCGCGAATGGAACACCACCGCGAAAATCGTGGCCAGAAATCGCAACCACGTTACGCTCGCGACCGCTCAATCGAGCAAGGCGCCGACCGCAAGCACCAGCAAACCTGAGACGCCGCGCACAAAGTGCGAAACCACTGGAAGGTGAGCCCTAATTTAGGGCTGAGCAGGACCTGTATAACGGCCTAGTATGGCGGTATGCGGATACTGCCGATTTCTATA (double strand) [2865p]", "values": [
      {"measurement": "binding", "setting": "[7]", "result": "binds"},
      {"measurement": "binding", "setting": "[8]", "result": "binds"}
    ]},
    {"sequence": "GGCGTTCGGCTCGGTAAGCCGATGCTCGGCGTACAGGGTTTAGCCATACTTTTAGCTACAATCGCGGTTATGGCTGTTGTCCCACTGGGTATA (double strand) [1247p3]", "values": [
      {"measurement": "binding", "setting": "[2]", "result": "binds"}
    ]},
    {"sequence": "TCCGAACGCCTCGTCGCTGTTTGATGTCTCCTCGAGCGTTCGGCTGAGCGAACTCAGCCGAACGCCTCGTCGAGGATCTCCTGCTGTTCGACGGCGTGCACCTTCGACGAGCCTGACGACGGGGCTGACATCGCCCGGCGCGAGATTCGCTTGATCCCGGCCAACTTGTCATCTAGACGGT (double strand) [1247p5]", "values": [
      {"measurement": "binding", "setting": "[2]", "result": "no binding"}
    ]}
  ]
}
